The values below come from article PMC3981788, “Allele-specific Characterization of Alanine: Glyoxylate Aminotransferase Variants Associated with Primary Hyperoxaluria” (PLoS ONE, 2014).

By stoichiometry N is commonly meant a count of units in the complex or per binding partner.

This data set concerns the molecule itself. Nature of the data set: SEC; data not shown; 10 uM AGTmi E274D with 100 uM PLP, Sephacryl S-300 10/600 column, 100 mM potassium phosphate buffer pH 7.4, elution volume compared with molecular weight standards. A general note: Size exclusion chromatography separates by hydrodynamic size, large species first.

B1: alanine: glyoxylate aminotransferase, minor allele variant, E274D (enzyme, human)
chain: MASHKLLVTPLKALLKPLSIPNQLLLGPGPSNLPPRIMAAGGLQMIGSMSKDMYQIMDEIKEGIQYVFQTRNPLTLVISGSGHCALEAALVNVLEPGDSFLVGANGIWGQRAVDIGERIGARVHPMTKDPGGHYTLQEVEEGLAQHKPVLLFLTHGESSTGVLQPLDGFGELCHRYKCLLLVDSVASLGGTPLYMDRQGIDILYSGSQKALNAPPGTSLISFSDKAKKKMYSRKTKPFSFYLDIKWLANFWGCDDQPRMYHHTIPVISLYSLRDSLALIAEQGLENSWRQHREAAAYLHGRLQALGLQLFVKDPALRLPTVTTVAVPAGYDWRDIVSYVMDHFDIEIMGGLGPSTGKVLRIGLLGCNATRENVDRVTEALRAALQHCPKKKL
notes: alanine: glyoxylate aminotransferase (AGT), human, minor allele (P11L, I340M) with the PH1-associated mutation E274D; SEC was run in the presence of 100 uM PLP (holo form); E274D was found in patients on the minor allele; also called AGTmi E274D; AGTmi^E274D; source: bacteria (pET30a), purified
Take B1: the “stoichiometry N” value came to 2.
